For one molecule, Kd results are on record in article doi:10.1101/2020.07.31.231746 (2020).

In the experiment the target is WT ACE2(740)-Fc (human, UniProt Q9BYF1 18-740). Description: BLI. On the technique in general: Biolayer interferometry detects binding as a change in optical thickness at a sensor tip.

B1: HCoV-NL63 spike RBD (domain or fragment)
chain: QHTDINFTATASFGGSCYVCKPHQVNISLNGNTSVCVRTSHFSIRYIYNRVKSGSPGDSSWHIYLKSGTCPFSFSKLNNFQKFKTICFSTVEVPGSCNFPLEATWHYTSYTIVGALYVTWSEGNSITGVPYPVSGI
Broadly, the Kd is the constant that tells how readily two partners part at equilibrium. A high value points to a looser complex. B1 returned a Kd of 22 nM.
